This passage reports % activation, SRE-luciferase reporter, normalized against soluble FGF21 results from patent US20250171545A1.

The experiment has as its target hFGFR1c and hKLB co-expressed on HEK293 cells (human) (UniProt P11362). The experiment can be described thus: cell-based or functional assay.

As for REGN4366 (bispecific antibody), the % activation, SRE-luciferase reporter, normalized against soluble FGF21 was determined as 19%.
